Experimental data taken from patent US20230235058A1 (OXFORD UNIVERSITY INNOVATION, published 2023).

B1: 2.8.6 (antibody, V domains shown)
VH: QVQLKESGPGLVAPSQSLSITCTVSGFSLTTYGVHWVRQSPGKGLEWLGVMWPGGRTSYNPAPMSRLSISKDNSKSQVFLKMNSLQTDDTAMYYCVRGDYEYDYYAMDYWGQGTSVTVSS
VL: QIVLSQSPAILSASPGEKVTMTCRASSSVSYMHWYQQKPGSSPKPWIYATSNLASGVPARFSGSGSGTSYSLTISRMEAEDAATYYCHQWSSNPYTFGGGTKLEIK
notes: mouse IgG1k hybridoma antibody; also called clone 2.8.6
B2: 11.5.1 (antibody, V domains shown)
VH: EVQLQESGPSLVKPSQTLSLTCSVTGDSITSAYWNWIRKFPGNKLEYMGYISYSGSTYFNPSLKSRISITRNTSKNQYYLQLNSVTTEDTATYYCARSHYYGYYFDYWGHGTTLTVSS
VL: DIVLTQSPASLAVSLGQRATISCRASETIDSYGDSLMHWYQQKAGQPPKLLIYRASNLESGIPARFSGSGSRTDFTLTINPVEADDVATYYCQQTDEDPYTFGGGTKLEIK
notes: mouse IgG1k hybridoma antibody

Columns and labels:
L106R = target: T1, L106R (Mus musculus); test: flow cytometry, GFP-positive transfected HEK-293T cells, fluorochrome-conjugated antibody at 10 ug/ml, Geo-mean relative to wild type;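 also: cells express mutant human BTLA ectodomain fused to murine CD28 transmembrane and cytoplasmic parts, stained 48 h after transfection for 1 h at 4 °C alongside a Live/Dead dye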
T1 construct: transmembrane and intracellular regions; also called BTLA L106R construct
Description: (§1) Constructs encoding the human extracellular region of BTLA with the transmembrane and intracellular regions of murine CD28 were cloned into the bi-cistronic mammalian expression vector pGFP2-n2 (BioSignal Packard Ltd), which also encodes GFP. […] Mock and no-transfection controls were included with each experiment. Cells were harvested at 48 hours and stained with fluorochrome-conjugated anti-BTLA antibody at 10 μg/ml, alongside a Live/Dead marker, in PBS, 0.05% azide, 2% FCS (FACS buffer) for 1 h at 4° C. Cells were washed, pelleted and resuspended in 200 μl FACS buffer before being analysed on a BD FACSCanto flow cytometer. […] For each mutant the Geo-mean of anti-BTLA antibody binding to transfected cells was expressed as a percentage of binding to the wild-type receptor (FIG. 3b). A panel of anti-BTLA antibodies was assessed and any mutation that eliminated binding of all antibodies was excluded from the analysis, on the assumption that such mutations lead to drastic changes in protein folding or expression rather than indicating an antibody epitope.

V80R = target: T2, V80R (Mus musculus); test: as above
T2 construct: transmembrane and intracellular regions; also called BTLA V80R construct
Description: as §1

K137E = target: T3, K137E (Mus musculus); test: as above
T3 construct: transmembrane and intracellular regions; also called BTLA K137E construct
T3 sequence (Q7Z6A9 31-151 K137E): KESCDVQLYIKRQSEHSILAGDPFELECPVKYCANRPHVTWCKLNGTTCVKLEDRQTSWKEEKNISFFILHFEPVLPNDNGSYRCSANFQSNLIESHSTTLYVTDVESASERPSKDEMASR
Description: as §1

R42E = target: T4, R42E (Mus musculus); test: as above
T4 construct: transmembrane and intracellular regions; also called BTLA R42E construct
Description: as §1

H68E = target: T5, H68E (Mus musculus); test: as above
T5 construct: transmembrane and intracellular regions; also called BTLA H68E construct
Description: as §1

N65R = target: T6, N65R (Mus musculus); test: as above
T6 construct: transmembrane and intracellular regions; also called BTLA N65R construct
Description: as §1

Q120R = target: T7, Q120R (Mus musculus); test: as above
T7 construct: transmembrane and intracellular regions; also called BTLA Q120R construct
Description: as §1

E92R = target: T8, E92R (Mus musculus); test: as above
T8 construct: transmembrane and intracellular regions; also called BTLA E92R construct
Description: as §1

L123R = target: T9, L123R (Mus musculus); test: as above
T9 construct: transmembrane and intracellular regions; also called BTLA L123R construct
Description: as §1

E55R = target: T10, E55R (Mus musculus); test: as above
T10 construct: transmembrane and intracellular regions; also called BTLA E55R construct
Description: as §1

A64R = target: T11, A64R (Mus musculus); test: as above
T11 construct: transmembrane and intracellular regions; also called BTLA A64R construct
Description: as §1

E83R = target: T12, E83R (Mus musculus); test: as above
T12 construct: transmembrane and intracellular regions; also called BTLA E83R construct
Description: as §1

Q86R = target: T13, Q86R (Mus musculus); test: as above
T13 construct: transmembrane and intracellular regions; also called BTLA Q86R construct
Description: as §1

D52R = target: T14, D52R (Mus musculus); test: as above
T14 construct: transmembrane and intracellular regions; also called BTLA D52R construct
Description: as §1

K81L = target: T15, K81L (Mus musculus); test: as above
T15 construct: transmembrane and intracellular regions; also called BTLA K81L construct
Description: as §1

[1] = target: T16, chimeric BTLA of humanised-BTLA mice (human extracellular region, murine transmembrane and signaling … (human; mouse, UniProt Q7TSA3 184-306, limits assumed); test: cell-based or functional assay
T16 sequence (Q7TSA3 other isoform, or with tags, fused parts or gaps mutant limits assumed): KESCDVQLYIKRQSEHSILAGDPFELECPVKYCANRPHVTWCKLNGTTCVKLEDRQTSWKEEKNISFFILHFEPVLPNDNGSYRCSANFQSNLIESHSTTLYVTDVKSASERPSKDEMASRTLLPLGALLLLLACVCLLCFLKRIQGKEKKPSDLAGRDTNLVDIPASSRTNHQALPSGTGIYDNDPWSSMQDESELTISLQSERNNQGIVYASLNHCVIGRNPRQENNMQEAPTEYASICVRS

[2] = target: T17, full length cynomolgus BTLA expressed on Jurkat cells (cynomolgus monkey, UniProt Q7Z6A9 31-289 (human entry)); test: flow cytometry, BTLA Jurkat cells
T17 construct: also called cynomolgus BTLA expressing cells
T17 chain: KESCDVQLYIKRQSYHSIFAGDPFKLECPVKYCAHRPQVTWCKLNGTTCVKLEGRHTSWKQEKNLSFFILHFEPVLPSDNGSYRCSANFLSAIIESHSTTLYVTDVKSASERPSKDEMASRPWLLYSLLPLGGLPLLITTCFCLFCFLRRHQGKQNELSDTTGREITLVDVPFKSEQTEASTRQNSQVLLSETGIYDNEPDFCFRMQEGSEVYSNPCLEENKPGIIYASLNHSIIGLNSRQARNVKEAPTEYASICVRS
Description: A lentiviral transfection system was used to express full length human or cynomolgus BTLA in a Jurkat T cell line. 1×10⁵ cells per well were plated in 96 well U-bottom plates. […] Secondary antibody was incubated for 30 minutes on ice, then cells were washed and resuspended in FACS buffer for analysis on a flow cytometer. The geometric mean fluorescent intensity of secondary antibody was plotted for each concentration and the EC50 for receptor binding calculated by non-linear curve fitting using GraphPad Prism software.
The ability of the BTLA agonist antibodies of the present invention to bind to human or cynomolgus BTLA expressed on the cell surface was assessed by flow cytometry. A lentiviral transfection system was used to express full length human or cynomolgus BTLA in a Jurkat T cell line. 1×10⁵ cells per well were plated in 96 well U-bottom plates.

[3] = target: T17, full length cynomolgus BTLA expressed …; test: cell-based or functional assay
[4] = target: T16, chimeric BTLA of humanised-BTLA mice …; test: cell-based or functional assay; remark: listed apart in the source
[5] = target: T18, soluble cynomolgus macaque BTLA extracellular domain (BTLA K31-R151) (cynomolgus macaque); test: SPR 37C, mAb captured, BTLA ECD analyte;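 also: Anti-BTLA mouse antibodies captured on a sensor chip via polyclonal anti-mouse IgG, isotype control antibody in reference channel, rates fitted after reference and blank subtraction to derive Kd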
T18 construct: also called cynomolgus BTLA; cyno BTLA
T18 chain: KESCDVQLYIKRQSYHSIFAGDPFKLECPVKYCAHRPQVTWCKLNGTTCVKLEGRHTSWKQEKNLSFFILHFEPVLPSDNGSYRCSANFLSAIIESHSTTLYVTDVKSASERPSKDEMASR
Description: (§2) Mouse antibody capture kit (GE Healthcare) was used to coat a Series S CMS Sensor Chip (GE Healthcare) with polyclonal anti-mouse IgG. Anti-BTLA antibody was then captured onto the biosensor surface and a negative control antibody (clone Mopc21; Biolegend) captured in the reference channel. […] Association and dissociation rates were fitted using BiaEvaluation Software (GE Healthcare) after reference and blank subtractions, and dissociation constants were calculated (FIG. 1b).

[6] = target: T18, soluble cynomolgus macaque BTLA …; test: SPR (Biacore T200), single cycle kinetics at 37 C, antibody captured on anti-mouse IgG, soluble BTLA extracellular domain as analyte
Description: as §2

Binder | binding as % of binding to wild-type BTLA (L106R) [%] | binding as % of binding to wild-type BTLA (V80R) [%] | binding as % of binding to wild-type BTLA (K137E) [%] | binding as % of binding to wild-type BTLA (R42E) [%] | binding as % of binding to wild-type BTLA (H68E) [%] | binding as % of binding to wild-type BTLA (N65R) [%] | binding as % of binding to wild-type BTLA (Q120R) [%] | binding as % of binding to wild-type BTLA (E92R) [%] | binding as % of binding to wild-type BTLA (L123R) [%] | binding as % of binding to wild-type BTLA (E55R) [%] | binding as % of binding to wild-type BTLA (A64R) [%] | binding as % of binding to wild-type BTLA (E83R) [%] | binding as % of binding to wild-type BTLA (Q86R) [%] | binding as % of binding to wild-type BTLA (D52R) [%] | binding as % of binding to wild-type BTLA (K81L) [%] | AntiCD3/CD28 (CD4 T cell proliferation) repeat 1 [1] [% inhibition] | AntiCD3/CD28 (CD4 T cell proliferation) repeat 2 [1] [% inhibition] | AntiCD3/CD28 (CD69+ CD4 T cells) repeat 1 [1] [% inhibition] | AntiCD3/CD28 (CD69+ CD4 T cells) repeat 2 [1] [% inhibition] | MLR (CD4 T cell proliferation) repeat 1 [1] [% inhibition] | also measured
B1 | 80.4 | 71.6 | 80.1 | 111 | 126 | 89 | 76.3 | 62.2 | 97.4 | 52 | 93.5 | 98.8 | 97.9 | 70.2 | 90.3 | 23 | 35 | 58 | 67 | 30 | MLR (CD4 T cell proliferation) repeat 2 [1]: 36 % inhibition; EC50 [2]: 0.16 nM; inhibition of NFkB-GFP reporter, IC50 [3]: 0.22 nM; inhibition of CD4 T cell proliferation in MLR, IC50 [4]: 0.029 nM; Kd [5]: 7.89 nM; koff [6]: 0.00627 s⁻¹; kon [6]: 795000 M⁻¹ s⁻¹
B2 | 135 | 39.9 | 55.6 | 72.3 | 81.3 | 87.9 | 89.9 | 73.3 | 116 | 60.5 | 148 | 95.5 | 132 | 129 | 116 | 21 | 28 | 50 | 47 | 23 | MLR (CD4 T cell proliferation) repeat 2 [1]: 18 % inhibition; EC50 [2]: 0.0057 nM; inhibition of NFkB-GFP reporter, IC50 [3]: 0.14 nM; inhibition of CD4 T cell proliferation in MLR, IC50 [4]: 0.016 nM; Kd [5]: 0.99 nM; Kd [6]: 0.995 nM; koff [6]: 0.000952 s⁻¹; kon [6]: 957000 M⁻¹ s⁻¹
